Values of other authors, collected in PMC6340931.
Where two headings read alike, the source gives them in different places. Values belong to the substance of their own block, whether it stands above or below them.

Legend:
[1] = biological target: Neurotensin (Homo sapiens) (UniProt P30990)
[2] = biological target: Sortilin-derived propeptide (SDP) Gln1-Arg44 (Homo sapiens) (UniProt Q99523)
[3] = biological target: Sortilin-derived propeptide (SDP) Gln1-Arg44 (Homo sapiens) (UniProt Q99523); remark: listed apart in the source

Kd [1]: 0.3 nM
Substance: Sortilin (from UniProt Q99523)

Kd [2]: 5 nM
Substance: Sortilin mature (from UniProt Q99523)

Kd [3]: 5 nM
Substance: TREK-1 (from UniProt O95069)
